Results reported in US20190309094A1.

Columns and labels:
[1] = biological target: CD3 on Jurkat luciferase reporter cells (Homo sapiens (Human)) (UniProt P07766); assay: flow cytometry on Jurkat_NFAT_Luc2P cells, PE-A; histogram shifted to about 10^4
hCD3εγ chains (human) [2] = biological target: hCD3εγ chains (human) (UniProt P07766); assay: ELISA on hCD3εγ chains, curve fit (unit from the axis)
hCD3εγ chains (human) [3] = biological target: hCD3εγ chains (human) (UniProt P07766); assay: ELISA on hCD3εγ chains, curve fit
[4] = biological target: CD3 on Jurkat luciferase reporter cells (Homo sapiens (Human)) (UniProt P07766); assay: flow cytometry on Jurkat_NFAT_Luc2P cells, control staining in all three panels
[5] = biological target: CD3 on Jurkat luciferase reporter cells (Homo sapiens (Human)) (UniProt P07766); assay: flow cytometry on Jurkat_NFAT_Luc2P cells, FITC-A; histogram shifted to between 10^3 and 10^4

Chain of UCHT1 (antibody) (V domain): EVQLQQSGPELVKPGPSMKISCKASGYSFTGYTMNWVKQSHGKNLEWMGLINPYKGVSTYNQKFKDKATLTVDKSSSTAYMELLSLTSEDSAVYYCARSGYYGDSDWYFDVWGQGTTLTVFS
Chain of UCHT1 (antibody) (VL): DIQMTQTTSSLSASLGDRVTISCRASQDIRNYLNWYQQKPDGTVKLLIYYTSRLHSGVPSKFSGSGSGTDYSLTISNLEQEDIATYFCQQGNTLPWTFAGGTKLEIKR

## Commercial CD3e(HiT3a) (antibody)
[1]
  Fold (fold over hIgG): 58

## UCHT1 (antibody)
hCD3εγ chains (human) [2]
  Kd: 33.3 nM
hCD3εγ chains (human) [3]
  Bmax: 1.52 OD 450 nm

## hIgG (antibody)
[4]
  Fold (fold (reference)): 1

## mOKT3 (antibody)
[5]
  Fold (fold over hIgG): 45
